# According to article PMC9741107, “The L-Rhamnose Biosynthetic Pathway in Trichomonas vaginalis: Identification and Characterization of UDP-D-Glucose 4,6-dehydratase” (International Journal of Molecular Sciences, 2022):
# How the values were obtained:
# [1] = target: the molecule itself; experiment: SEC; size-exclusion chromatography of the purified protein on a TSK-gel 3000 column, as described in ref. 23; molecular weight calculated from the elution time
# [2] = substrate: O=c1ccn([C@@H]2O[C@H](CO[P@@](=O)(O)O[P@@](=O)(O)O[C@H]3O[C@H](CO)[C@@H](O)[C@H](O)[C@H]3O)[C@@H](O)[C@H]2O)c(=O)[nH]1; experiment: anion-exchange HPLC of substrate consumption, Michaelis-Menten fit; type: biochemical, Trichomonas vaginalis; settings: 50 mM Tris/HCl, 150 mM NaCl, pH 7.0, 25 °C, no added NAD(P)+ or bivalent cations needed
# [3] = substrate: Cc1cn([C@H]2C[C@H](O)[C@@H](COP(=O)(O)OP(=O)(O)O[C@H]3O[C@H](CO)[C@@H](O)[C@H](O)[C@H]3O)O2)c(=O)[nH]c1=O; experiment: as above; type: biochemical, Trichomonas vaginalis; settings: 50 mM Tris/HCl, 150 mM NaCl, pH 7.0, 25 °C, no added NAD(P)+ or bivalent cations needed
protein,measurement,setting,value
"UDP-D-glucose 4,6-dehydratase from Trichomonas vaginalis (TvUGD, TVAG_414560) (enzyme, Trichomonas vaginalis (strain G3), UniProt A2GEF2 1-348, looked up, calculated monomer mass 39 kDa; Residues of the vector may remain after protease cleavage; also called TvGD; UDP-D-Glc 4,6-dehydratase; source: E. coli BL21, GST-fusion from pGEX-6P1, purified on GSH-sepharose 4B, GST removed by precision protease cleavage) MSEDYQPHVILLTGGAGFIGSHVCNHLVLKYPDVKIICLDVMDYCANLRNLEEIMNKPNFLFIKGSINNVELVSYIMKTHAVDTVMHFAAQSHVDRSFGNSLEFTHTNILGTHVLLECAKQNNIKRFIHVSTDEVYGEVLSGCAEEEKSILCPTNPYACSKAGAEFMCQAYIRSFNMPIIITRGNNVFGPKQFPEKVIPKFTLLLKAGHKCCIHGDGSALRNFLHTSDVVQAFDTILHKGKLHQIYNIGTDFEISVLEMTKKLIKVLNMPGKPEDWIEFVPDRAFNDSRYMINSSKLIALGWHANTDFDTLLKETVQWYLDHMDYWKDRDINTYLSPHPIAYAPKTAE",stoichiometry N,[1],2
same,Km,[2],21.3 ± 3.4 µM
same,kcat,[2],0.39 ± 0.01 s⁻¹
same,Km,[3],362.8 ± 73.4 µM
same,kcat,[3],0.36 ± 0.03 s⁻¹
